Laboratory results from paper PMC5834214 (PLoS Pathogens, 2018).

Tests used:
eGFP = eGFP (Aequorea victoria, UniProt P42212, F64L/H231L/S65T)
LCMV NP (Strep-NP) = LCMV NP (Strep-NP) (Lymphocytic choriomeningitis virus, UniProt P09992)
Sequence of LCMV NP (Strep-NP) (P09992 whole entry): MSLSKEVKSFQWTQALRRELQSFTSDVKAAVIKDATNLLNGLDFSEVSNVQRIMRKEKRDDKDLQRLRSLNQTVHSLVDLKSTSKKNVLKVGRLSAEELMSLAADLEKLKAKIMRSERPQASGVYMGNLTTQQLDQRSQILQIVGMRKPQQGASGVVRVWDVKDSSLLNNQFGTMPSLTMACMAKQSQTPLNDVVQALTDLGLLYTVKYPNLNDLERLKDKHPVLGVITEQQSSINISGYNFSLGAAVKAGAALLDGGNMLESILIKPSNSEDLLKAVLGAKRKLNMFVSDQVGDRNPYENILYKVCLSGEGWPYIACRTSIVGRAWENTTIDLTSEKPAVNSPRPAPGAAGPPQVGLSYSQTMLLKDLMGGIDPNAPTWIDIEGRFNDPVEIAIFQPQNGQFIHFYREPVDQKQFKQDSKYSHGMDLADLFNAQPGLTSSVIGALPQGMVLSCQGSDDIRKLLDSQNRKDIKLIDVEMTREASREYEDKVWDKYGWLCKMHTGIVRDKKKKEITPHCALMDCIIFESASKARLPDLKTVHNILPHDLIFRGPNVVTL

B1: HNRNPC (protein, UniProt P07910 2-306, looked up)
Heterogeneous nuclear …: ASNVTNKTDPRSMNSRVFIGNLNTLVVKKSDVEAIFSKYGKIVGCSVHKGFAFVQYVNERNARAAVAGEDGRMIAGQVLDINLAAEPKVNRGKAGVKRSAAEMYGSVTEHPSPSPLLSSSFDLDYDFQRDYYDRMYSYPARVPPPPPIARAVVPSKRQRVSGNTSRRGKSGFNSKSGQRGSSKSGKLKGDDLQAIKKELTQIKQKVDSLLENLEKIEKEQSKQAVEMKNDKSEEEQSSSSVKKDETNVKMESEGGADDSAEEGDLLDDDDNEDRGDDQLELIKDDEKEAEEGEDDRDSANGEDDS
eGFP
  Spectral count eGFP Average: 0
  Spectral count eGFP Exp. 1: 0
  Spectral count eGFP Exp. 2: 0
LCMV NP (Strep-NP)
  Spectral count NP Average: 4.5
  Spectral count NP Exp. 1: 4
  Spectral count NP Exp. 2: 5
